From publication PMC9577226, “In vitro selection and optimization of high-affinity aptamer for milk allergen α-lactalbumin and its application in dual-mode detection”

T1: alpha-lactalbumin (α-La) (Bos taurus (bovine milk), UniProt P00711 20-142)
T1 sequence: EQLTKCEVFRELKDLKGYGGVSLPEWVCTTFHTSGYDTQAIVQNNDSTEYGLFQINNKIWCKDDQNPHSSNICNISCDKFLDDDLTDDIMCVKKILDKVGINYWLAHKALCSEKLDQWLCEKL

B1: LA-1t (structured_DNA)
DNA: AGCAGCACAGAGGTCAGATGGTGCTGCGAA
B2: LA-1 (ssDNA)
DNA: AGCAGCACAGAGGTCAGATGGTGCTGCGAACTTAACGCAAGATAGGCTGGACGCGAGTCCCCTATGCGTGCTACCGTGAA
B3: LA-9 (ssDNA)
DNA: AGCAGCACAGAGGTCAGATGCTGGGCTGCGAATGACGAATAAATACGCCGTTTCAGACGGCCTATGCGTGCTACCGTGAA
B4: LA-10 (ssDNA)
DNA: AGCAGCACAGAGGTCAGATGTAGTGCTGCGAAGTTGGCTCCGGCGGCGTCAGTCTAGCCGCCTATGCGTGCTACCGTGAA
B5: LA-2 (ssDNA)
DNA: AGCAGCACAGAGGTCAGATGGGCTGCGAACAGTTGCATATGGCGCGACTCTAGGCGGGTCCCTATGCGTGCTACCGTGAA
B6: LA-11 (ssDNA)
DNA: AGCAGCACAGAGGTCAGATGTGGGTGCTGCGAAAGGACGGCATGGGGTCCAAAAGACCCCCCTATGCGTGCTACCGTGAA

Target: T1, alpha-lactalbumin (α-La)
Experiment: fluorescence graphene oxide (GO) assay; 50 mM Tris-HCl, 5 mM KCl, 100 mM NaCl, 1 mM MgCl2, pH 7.4; 100 nM FAM-aptamer, 0-400 ug/ml α-La, 1 h in the dark, then GO 15 min; assay temperature not stated (SELEX at 37 °C)
Settings: protein: commercial, label: 5'-FAM

Row | Binder | Kd (hairpin) [nM] | Kd (5' stem-loop (predicted)) [nM]
1 | B1 | 14.1 ± 4.15 | –
2 | B2 | – | 92.6 ± 18
3 | B3 | – | 253 ± 32.2
4 | B4 | – | 168 ± 28.9
5 | B5 | – | 101 ± 21.3
6 | B6 | – | 175 ± 28.3
